Data on eleven molecules can be found in US20260167699A1 (Chugai, published 2026).

What all share (assay): SPR; % of GpH7-A5/GpH7-B3/GpL16-k0
Test [1] has as its target T1, FcγRIIIa extracellular domain with C-terminal His tag (human, UniProt P08637 17-208).
T1 construct: extracellular domain; also called 3a; CD16

Test [2] addresses T2, FcγRIIa(H) extracellular domain with C-terminal His tag (human, UniProt P12318 34-217).
T2 construct: extracellular domain; H131 allotype; also called 2aH; CD32
T2 sequence: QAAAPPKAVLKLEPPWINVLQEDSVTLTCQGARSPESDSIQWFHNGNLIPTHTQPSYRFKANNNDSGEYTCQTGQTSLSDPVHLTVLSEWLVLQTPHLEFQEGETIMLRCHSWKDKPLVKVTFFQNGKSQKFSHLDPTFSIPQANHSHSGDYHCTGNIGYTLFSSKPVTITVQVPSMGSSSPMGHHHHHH

Test [3] concerns the target T3, FcγRIIb extracellular domain with C-terminal His tag (human, UniProt P31994 43-217).
T3 construct: extracellular domain; also called 2b; CD32
T3 sequence: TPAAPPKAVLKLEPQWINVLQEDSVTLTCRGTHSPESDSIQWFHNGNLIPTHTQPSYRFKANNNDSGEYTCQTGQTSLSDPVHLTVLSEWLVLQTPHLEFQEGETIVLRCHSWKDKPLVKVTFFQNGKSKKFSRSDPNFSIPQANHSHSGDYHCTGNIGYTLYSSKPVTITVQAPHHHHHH

Test [4] has as its target T4, FcγRIIa(R) extracellular domain with C-terminal His tag (human, UniProt P12318 34-217).
T4 construct: extracellular domain; R131 allotype; also called 2aR; CD32
T4 sequence: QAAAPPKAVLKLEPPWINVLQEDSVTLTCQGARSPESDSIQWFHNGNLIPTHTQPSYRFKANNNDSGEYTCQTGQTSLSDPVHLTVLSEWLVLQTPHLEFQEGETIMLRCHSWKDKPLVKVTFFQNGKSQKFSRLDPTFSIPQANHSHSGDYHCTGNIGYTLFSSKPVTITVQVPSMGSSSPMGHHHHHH

Test [5] deals with T5, FcγRIa extracellular domain with C-terminal His tag (human, UniProt P12314 16-292).
T5 construct: extracellular domain; also called 1a; CD64
T5 sequence (P12314 other isoform, or with tags, fused parts or gaps): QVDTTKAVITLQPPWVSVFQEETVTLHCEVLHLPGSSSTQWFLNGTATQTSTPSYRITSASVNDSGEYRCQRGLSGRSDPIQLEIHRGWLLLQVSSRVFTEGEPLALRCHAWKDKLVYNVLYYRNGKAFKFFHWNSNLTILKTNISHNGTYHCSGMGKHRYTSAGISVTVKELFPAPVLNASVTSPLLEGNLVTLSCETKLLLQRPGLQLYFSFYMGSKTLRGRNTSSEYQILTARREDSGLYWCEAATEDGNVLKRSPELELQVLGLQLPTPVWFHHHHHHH

T1 sequence (P08637 other isoform, or with tags, fused parts or gaps): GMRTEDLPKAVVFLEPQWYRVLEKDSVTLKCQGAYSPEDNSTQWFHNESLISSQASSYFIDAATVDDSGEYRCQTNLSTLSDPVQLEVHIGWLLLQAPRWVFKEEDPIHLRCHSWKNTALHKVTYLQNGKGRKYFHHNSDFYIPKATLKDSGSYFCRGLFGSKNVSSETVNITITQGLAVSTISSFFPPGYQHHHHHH

B1: GpH7-A5/GpH7-B3 variant K334_06M/GpL16-k0 (antibody, human IgG1, kappa)
heavy 1: not shown
heavy 2: not shown
light: DIVMTQSPLSLPVTPGEPASISCQASESLVHSNRNTYLHWYLQKPGQSPQLLIYKVSNRFSGVPDRFSGSGSGTDFTLKISRVEAEDVGVYYCSQNTHVPPTFGQGTKVEIERTVAAPSVFIFPPSDEQLKSGTASVVCLLNNFYPREAKVQWKVDNALQSGNSQESVTEQDSKDSTYSLSSTLTLSKADYEKHKVYACEVTHQGLSSPVTKSFNRGEC
notes: heterodimerized IgG1 (He Ab), mutation in one H chain only; also called He Ab
For the molecule B1, the “He/Con 3a” value in test [1] was determined as 149%. Further, the “He/Con 2aH” value in test [2] came to 121%. The “He/Con 2b” value in test [3] came out at 141%. For the same molecule, the “He/Con 2aR” value in test [4] was found to be 144%. Moreover, the “He/Con 1a” value in test [5] came out at 99%.

B2: GpH7-A5/GpH7-B3 variant K334_09D/GpL16-k0 (antibody, human IgG1, kappa)
heavy 1: not shown
heavy 2: not shown
light: DIVMTQSPLSLPVTPGEPASISCQASESLVHSNRNTYLHWYLQKPGQSPQLLIYKVSNRFSGVPDRFSGSGSGTDFTLKISRVEAEDVGVYYCSQNTHVPPTFGQGTKVEIERTVAAPSVFIFPPSDEQLKSGTASVVCLLNNFYPREAKVQWKVDNALQSGNSQESVTEQDSKDSTYSLSSTLTLSKADYEKHKVYACEVTHQGLSSPVTKSFNRGEC
notes: as for B1
For B2, in test [1], the “He/Con 3a” value amounted to 164%. For the same molecule, the “He/Con 2aH” value in test [2] came to 95.6%. Besides, in test [3], the “He/Con 2b” value came out at 122%. For the same molecule, the “He/Con 2aR” value in test [4] was determined as 127%. Further, the “He/Con 1a” value in test [5] was 101%.

B3: GpH7-A5/GpH7-B3 variant K334_07I/GpL16-k0 (antibody, human IgG1, kappa)
heavy 1: not shown
heavy 2: not shown
light: DIVMTQSPLSLPVTPGEPASISCQASESLVHSNRNTYLHWYLQKPGQSPQLLIYKVSNRFSGVPDRFSGSGSGTDFTLKISRVEAEDVGVYYCSQNTHVPPTFGQGTKVEIERTVAAPSVFIFPPSDEQLKSGTASVVCLLNNFYPREAKVQWKVDNALQSGNSQESVTEQDSKDSTYSLSSTLTLSKADYEKHKVYACEVTHQGLSSPVTKSFNRGEC
notes: as for B1
For B3, in test [1], the “He/Con 3a” value came to 156%. Further, the “He/Con 2aH” value in test [2] was 126%. For the same molecule, the “He/Con 2b” value in test [3] is 154%. For the same molecule, the “He/Con 2aR” value in test [4] came out at 155%. Further, in test [5], the “He/Con 1a” value came out at 98.7%.

B4: GpH7-A5/GpH7-B3 variant K334_16H/GpL16-k0 (antibody, human IgG1, kappa)
heavy 1: not shown
heavy 2: not shown
light: DIVMTQSPLSLPVTPGEPASISCQASESLVHSNRNTYLHWYLQKPGQSPQLLIYKVSNRFSGVPDRFSGSGSGTDFTLKISRVEAEDVGVYYCSQNTHVPPTFGQGTKVEIERTVAAPSVFIFPPSDEQLKSGTASVVCLLNNFYPREAKVQWKVDNALQSGNSQESVTEQDSKDSTYSLSSTLTLSKADYEKHKVYACEVTHQGLSSPVTKSFNRGEC
notes: as for B1
B4: the “He/Con 3a” value in test [1] was found to be 138%. Further, the “He/Con 2aH” value in test [2] came to 119%. The “He/Con 2b” value in test [3] turned out to be 146%. Moreover, in test [4], the “He/Con 2aR” value came to 149%. Besides, the “He/Con 1a” value in test [5] was 99.3%.

B5: GpH7-A5/GpH7-B3 variant K334_10E/GpL16-k0 (antibody, human IgG1, kappa)
heavy 1: not shown
heavy 2: not shown
light: DIVMTQSPLSLPVTPGEPASISCQASESLVHSNRNTYLHWYLQKPGQSPQLLIYKVSNRFSGVPDRFSGSGSGTDFTLKISRVEAEDVGVYYCSQNTHVPPTFGQGTKVEIERTVAAPSVFIFPPSDEQLKSGTASVVCLLNNFYPREAKVQWKVDNALQSGNSQESVTEQDSKDSTYSLSSTLTLSKADYEKHKVYACEVTHQGLSSPVTKSFNRGEC
notes: as for B1
With B5, in test [1], the “He/Con 3a” value is 186%. Besides, the “He/Con 2aH” value in test [2] came to 113%. For the same molecule, in test [3], the “He/Con 2b” value came to 148%. The “He/Con 2aR” value in test [4] came out at 144%. For the same molecule, the “He/Con 1a” value in test [5] worked out at 104%.

B6: GpH7-A5/GpH7-B3 variant K334_12R/GpL16-k0 (antibody, human IgG1, kappa)
heavy 1: not shown
heavy 2: not shown
light: DIVMTQSPLSLPVTPGEPASISCQASESLVHSNRNTYLHWYLQKPGQSPQLLIYKVSNRFSGVPDRFSGSGSGTDFTLKISRVEAEDVGVYYCSQNTHVPPTFGQGTKVEIERTVAAPSVFIFPPSDEQLKSGTASVVCLLNNFYPREAKVQWKVDNALQSGNSQESVTEQDSKDSTYSLSSTLTLSKADYEKHKVYACEVTHQGLSSPVTKSFNRGEC
notes: as for B1
Turning to B6, the “He/Con 3a” value in test [1] stood at 93.5%. For the same molecule, the “He/Con 2aH” value in test [2] was 114%. For the same molecule, in test [3], the “He/Con 2b” value worked out at 144%. Besides, the “He/Con 2aR” value in test [4] was 151%. For the same molecule, the “He/Con 1a” value in test [5] came out at 98.2%.

B7: GpH7-A5/GpH7-B3 variant K334_08L/GpL16-k0 (antibody, human IgG1, kappa)
heavy 1: not shown
heavy 2: not shown
light: DIVMTQSPLSLPVTPGEPASISCQASESLVHSNRNTYLHWYLQKPGQSPQLLIYKVSNRFSGVPDRFSGSGSGTDFTLKISRVEAEDVGVYYCSQNTHVPPTFGQGTKVEIERTVAAPSVFIFPPSDEQLKSGTASVVCLLNNFYPREAKVQWKVDNALQSGNSQESVTEQDSKDSTYSLSSTLTLSKADYEKHKVYACEVTHQGLSSPVTKSFNRGEC
notes: as for B1
As to B7, in test [1], the “He/Con 3a” value worked out at 148%. Besides, the “He/Con 2aH” value in test [2] amounted to 120%. Also, the “He/Con 2b” value in test [3] was 137%. Also, the “He/Con 2aR” value in test [4] worked out at 145%. Also, the “He/Con 1a” value in test [5] amounted to 99.1%.

B8: GpH7-A5/GpH7-B3 variant K334_13S/GpL16-k0 (antibody, human IgG1, kappa)
heavy 1: not shown
heavy 2: not shown
light: DIVMTQSPLSLPVTPGEPASISCQASESLVHSNRNTYLHWYLQKPGQSPQLLIYKVSNRFSGVPDRFSGSGSGTDFTLKISRVEAEDVGVYYCSQNTHVPPTFGQGTKVEIERTVAAPSVFIFPPSDEQLKSGTASVVCLLNNFYPREAKVQWKVDNALQSGNSQESVTEQDSKDSTYSLSSTLTLSKADYEKHKVYACEVTHQGLSSPVTKSFNRGEC
notes: as for B1
For the molecule B8, the “He/Con 3a” value in test [1] stood at 150%. Also, the “He/Con 2aH” value in test [2] was 116%. The “He/Con 2b” value in test [3] turned out to be 143%. Besides, the “He/Con 2aR” value in test [4] turned out to be 149%. The “He/Con 1a” value in test [5] was determined as 99.3%.

B9: GpH7-A5/GpH7-B3 variant K334_15Y/GpL16-k0 (antibody, human IgG1, kappa)
heavy 1: not shown
heavy 2: not shown
light: DIVMTQSPLSLPVTPGEPASISCQASESLVHSNRNTYLHWYLQKPGQSPQLLIYKVSNRFSGVPDRFSGSGSGTDFTLKISRVEAEDVGVYYCSQNTHVPPTFGQGTKVEIERTVAAPSVFIFPPSDEQLKSGTASVVCLLNNFYPREAKVQWKVDNALQSGNSQESVTEQDSKDSTYSLSSTLTLSKADYEKHKVYACEVTHQGLSSPVTKSFNRGEC
notes: as for B1
Take B9: in test [1], the “He/Con 3a” value worked out at 145%. Further, the “He/Con 2aH” value in test [2] was 122%. Also, in test [3], the “He/Con 2b” value was determined as 141%. Also, the “He/Con 2aR” value in test [4] amounted to 148%. Besides, the “He/Con 1a” value in test [5] stood at 99.1%.

B10: GpH7-A5/GpH7-B3 variant K334_18N/GpL16-k0 (antibody, human IgG1, kappa)
heavy 1: not shown
heavy 2: not shown
light: DIVMTQSPLSLPVTPGEPASISCQASESLVHSNRNTYLHWYLQKPGQSPQLLIYKVSNRFSGVPDRFSGSGSGTDFTLKISRVEAEDVGVYYCSQNTHVPPTFGQGTKVEIERTVAAPSVFIFPPSDEQLKSGTASVVCLLNNFYPREAKVQWKVDNALQSGNSQESVTEQDSKDSTYSLSSTLTLSKADYEKHKVYACEVTHQGLSSPVTKSFNRGEC
notes: as for B1
In the case of B10, in test [1], the “He/Con 3a” value was 140%. Also, in test [2], the “He/Con 2aH” value is 114%. Moreover, the “He/Con 2b” value in test [3] was determined as 148%. The “He/Con 2aR” value in test [4] was found to be 152%. Besides, the “He/Con 1a” value in test [5] came out at 99%.

B11: GpH7-A5/GpH7-B3 variant K334_14T/GpL16-k0 (antibody, human IgG1, kappa)
heavy 1: not shown
heavy 2: not shown
light: DIVMTQSPLSLPVTPGEPASISCQASESLVHSNRNTYLHWYLQKPGQSPQLLIYKVSNRFSGVPDRFSGSGSGTDFTLKISRVEAEDVGVYYCSQNTHVPPTFGQGTKVEIERTVAAPSVFIFPPSDEQLKSGTASVVCLLNNFYPREAKVQWKVDNALQSGNSQESVTEQDSKDSTYSLSSTLTLSKADYEKHKVYACEVTHQGLSSPVTKSFNRGEC
notes: as for B1
In the case of B11, the “He/Con 3a” value in test [1] was 146%. Moreover, the “He/Con 2aH” value in test [2] is 118%. The “He/Con 2b” value in test [3] was 149%. Besides, the “He/Con 2aR” value in test [4] was found to be 153%. For the same molecule, the “He/Con 1a” value in test [5] is 99.2%.
